Test results from patent publication US7129332.

Columns and labels:
[1] = target: EGFRvIII (mutant epidermal growth factor receptor) on NR6M cells (human) (UniProt P00533); experiment: cell-based or functional assay
[2] = target: EGFRvIII peptide (…-biotin); experiment: SPR (BIAcore), biotinylated peptide on streptavidin chip, immunotoxin injected

In the case of “MR1(Fv)-PE38 (from UniProt P11439 278-389; P11439 406-638) (scFv)”, the IC50, cytotoxic activity, Experiment 1 [1] is reported as 9.2 ng/mL, the IC50, cytotoxic activity, Experiment 2 [1] is reported as 6.6 ng/mL and the IC50, cytotoxicity (inhibition of [3H]-leucine incorporation) on NR6M cells [1] is reported as 8 ng/mL. For the same substance, the Kd [2] was 8 nM.
